Reference: PMC4533228 (Cell Reports, 2015)

Target: T1, polyUb-E6AP (resin-bound E6AP autoubiquitinated with K48-linked polyubiquitin chains) (UniProt Q05086 1-875; P0CG48 1-76, K48-linked polyubiquitin chains of undefined length attached by autoubiquitination; sites not stated | ubiquitins joined to each other by K48 isopeptide linkages and to E6AP; chain length undefined)
T1 construct: HECT E3 ligase E6AP; ubiquitin, the mature 76-residue protein, wild type; Covalent conjugate held on resin; also called K48-polyUb conjugates; polyubiquitinated E6AP; source: E3 enzyme expressed in E. coli and purified
Test: pull-down; resin-bound polyUb-E6AP and polyUb-Ube2SΔ incubated with 100 nM purified Rpn10-UIM, hHR23A or hHR23B for 30 min at 4°C, washed; bound proteins by immunoblot for His (Rpn10) or hHR23A/B
Conditions: both partners purified

B1: recombinant Ub-interacting motif (UIM) of Rpn10 (domain or fragment)
chain: MLGLGASDFEFGVDPSADPELALALRVSMEEQRQRQEEEARRAAAASAAEAGIATTGTEDSDDALLKMTISQQEFGRTGLPDLSSMTEEEQIAYAMQMSLQGAEFGQAESA
fold binding relative to K11 chains (polyUb-Ube2SΔ), ImageJ quantification: ~4 fold
